# ± gives the standard deviation.
# Assay: protein stability index of a GFP-peptide fusion (GPS, HEK-293T) (PSI 1-6); higher = more stable
# [1] = treatment: DMSO, c terminus: a fixed tail appended
# [2] = treatment: MLN4924 1 uM, 8 h, c terminus: a fixed tail appended
# [3] = treatment: DMSO, c terminus: native
# [4] = treatment: MLN4924 1 uM, 8 h, c terminus: native
# 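Also: 24-mer peptide tiles fused after GFP, lentivirally expressed, FACS-sorted into six equal bins by GFP/DsRed ratio, decoded by Illumina sequencing, PSI is the read-weighted mean bin number.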
Sequence,protein stability index [1],protein stability index [2],protein stability index [3],protein stability index [4]
LSSSIIHEIDSILGNKPYSKKDYR [KCNAB2],2.65 ± 0.26,3.24 ± 0.45,–,–
RAALICLTLVLVASVLLQAVLYPR [CD207],2.44 ± 0.55,2.59 ± 0.53,–,–
GPNPSKLIQQFLTLRPDQQLHIFN [CDS2],2.16 ± 0.42,2.09 ± 0.25,–,–
RQKTSGPSVIQEIHQESGKAPSTD [C10orf62],5.41 ± 0.073,5.4 ± 0.057,–,–
RTCFSPASDGSDFTFLRPLSVQQP [PCDHGC5],2.77 ± 0.23,2.78 ± 0.22,–,–
KNTEVSSMECEKNLYWICNKPYK [CD69],–,–,2.97 ± 0.2,2.86 ± 0.61
VASGYHYGVASCEACKAFFKRTIQ [ESRRA],2.29 ± 0.27,2.47 ± 0.48,–,–
EGEIATYRHLLEGEDCKLPPQPCA [KRT36],4.6 ± 0.26,4.26 ± 0.24,–,–
QVTMRGLLSCLSKSNNRLKSLSIQ [FBXO39],2.21 ± 0.11,2.07 ± 0.21,–,–
RMPDEDSKIDHYVLEYRRTNFEGP [FSD1],3.78 ± 0.19,3.79 ± 0.14,–,–
GESDNPLRFTSGLVVALDVDATLE [INTS4],3.23 ± 0.37,3.54 ± 0.15,–,–
IGTMAGITTPIIDTFKVPKEMFTV [SLC6A17],2.45 ± 0.3,2.71 ± 0.24,–,–
IDILWRQDIDLGAGREVFDYSHRQ [NFE2L1],2.24 ± 1,2.49 ± 0.34,–,–
SGSRPRKPPPRKHTRSWAVLKLLL [LRRC59],2.39 ± 0.37,2.31 ± 0.28,–,–
MSEGKPPDKKKRPRRSLSISKNKK [FAN1],5.08 ± 0.17,5.07 ± 0.21,–,–
GWFVRELRVEFAAENYLSGGGPGD [FBXO33],2.14 ± 0.27,2.21 ± 0.28,–,–
YGRDSFVRLLLEFKAEVDPLSDKG [ASB7],2.65 ± 0.74,2.37 ± 0.28,–,–
GSGYEKLGPSRDPDPLNICVFILL [RTP4],3.15 ± 0.2,2.45 ± 0.68,–,–
EAVPARGEPQQDCCVKTELLGEET [EHMT1],5.52 ± 0.27,5.65 ± 0.26,–,–
SLLGDDVFSTMAGLEEADAEVSVI [FBF1],3.56 ± 0.26,3.5 ± 0.22,–,–
AVEGAARTTPSRREITGVQAQPGE [PALM],5.22 ± 0.36,5.31 ± 0.28,–,–
QTTYLEDRPMFMLQCAMEENCLSA [LOXL2],2.38 ± 0.59,2.33 ± 0.43,–,–
EQAKENENGELQKIILPRSRVKG [ZC2HC1C],–,–,3.42 ± 0.47,3.42 ± 0.28

Sequence,protein stability index [1],protein stability index [2],protein stability index [3],protein stability index [4]
RKVLQAVHRGDGANPFQAYLDVDL [RTN2],3.21 ± 0.26,3.26 ± 0.19,–,–
DRNVVTIFSAPNYCYRCGNQAAIM [PPP2CA],2.7 ± 0.79,2.11 ± 0.23,–,–
AKINIVYQELNYRSVEEAPVYSVP [SCNN1D],2.17 ± 0.14,2.15 ± 0.45,–,–
IGAFLNLVVLRFLTMNSEDERRDA [KCNK9],3.27 ± 0.77,3.02 ± 0.6,–,–
VVTLWYRAPEVLLQSTYATPVDMW [CDK4],3.15 ± 0.61,3.07 ± 0.68,–,–
LDAHYHVKISDFGLAKCNGLSHSH [RIPK4],2.25 ± 0.31,2.48 ± 0.15,–,–
PTQEEWRQVVDILWSDPMAQEGCK [PPEF2],3.96 ± 0.39,4.21 ± 0.079,–,–
SLIQLLGRNFILFIIFGTMEEMQN [HACD3],2.92 ± 0.67,3.01 ± 1.3,–,–
EEDEQLRALVRQFGQQDWKFLASH [MYBL2],3.17 ± 0.36,3.46 ± 0.17,–,–
ILNLERDVEDLQRDKARLLREKVE [NFE2L1],3.96 ± 0.51,3.93 ± 0.41,–,–
NIQANNCFSTGLSRRVLLTNVVTG [DCAF4],2.54 ± 0.26,2.63 ± 0.2,–,–
GGPAGQAGRGGAAGTAGVGETGSG [MYOZ1],5.42 ± 0.21,5.34 ± 0.32,–,–
AIRPENRAPGAGLGQDRQVPLWGQ [EMD],3.5 ± 0.21,3.45 ± 0.18,–,–
NDRGDHYHWKDLNRGINITIYGKT [EFHC1],2.5 ± 0.17,2.39 ± 0.54,–,–
FMSPCDKFRAKGRKPCKLMLQVVK [MCOLN1],2.26 ± 0.26,2.38 ± 0.24,–,–
FAIGARARAEAEQMAKKAEAFQLY [FLOT1],2.78 ± 0.42,3.02 ± 0.58,–,–
AFLRRVKTCNPPDAGPMVVHCSAG [PTPRD],2.15 ± 0.068,2.18 ± 0.3,–,–
HSYMGMRGFCAFLGSWLVPFAYLT [POMT2],2.96 ± 0.86,3.04 ± 0.62,–,–
SISDLSEHVFDLILELYNIDSHLL [PDS5B],2.49 ± 0.89,2.25 ± 0.81,–,–
CSPTAHDRECKLPPPSAPASEYCP [WDR88],4.55 ± 0.088,4.584 ± 0.039,–,–
GSNPPYLPFRDASFGNCTYNLTIL [CDC14A],2.6 ± 0.69,2.8 ± 0.73,–,–
GVSYTFDNEDSELNGDYGENIYPY [MIA2],3.93 ± 0.061,3.77 ± 0.55,–,–
VLENLEDSCVLTGPDDSLWDKHAC [TRIB3],3.69 ± 0.16,3.87 ± 0.26,–,–

Sequence,protein stability index [1],protein stability index [2],protein stability index [3],protein stability index [4]
PDTQALCHHLPVIRQLATSGRFIV [SMG5],2.07 ± 0.45,2.23 ± 0.44,–,–
TIKHPGGAGAEESELQAYIAQCQD [MCOLN1],5.27 ± 0.2,5.23 ± 0.31,–,–
FILGRLCVPVFANMSREPFSTRAL [SOAT2],2.94 ± 0.56,2.56 ± 0.52,–,–
FKRWIYLNDQNLCIPASSSFVYGA [GAN],2.41 ± 0.37,2.47 ± 0.38,–,–
LLSTSLDAKDELEERLERCMSIVT [INTS3],3.38 ± 0.22,3.51 ± 0.37,–,–
DAVFMKDGFFYFFHGTRQYKFDPK [MMP1],2.25 ± 0.33,2.1 ± 0.13,–,–
LKSSILIAMAVYTYLRLIVDHHGT [INTS3],3.51 ± 0.21,3.11 ± 0.27,–,–
SLPSPSSSGHQNRRFSSEDLEDPL [FBF1],5.45 ± 0.3,5.46 ± 0.29,–,–
ITLFLLGAAKGKEVCYEDLGCFSD [PNLIPRP1],2.74 ± 0.43,3.24 ± 0.43,–,–
SVSWWGLSPALDLQAESPPVDPDS [DNAAF3],4.85 ± 0.12,4.944 ± 0.047,–,–
FVETRLRDLPDTPRRFTFYPCVLA [TRIM39],2.63 ± 0.68,2.16 ± 0.071,–,–
EEHWVGLKKEPGHPWKWSNGKEFN [CD69],3.19 ± 0.27,3.33 ± 0.21,–,–
QRDSKCKVKWTHEEDEQLRALVRQ [MYBL2],4.25 ± 0.33,4.02 ± 0.24,–,–
VMDYLPISSTSTKRTYWPDLDAKI [PLD5],2.77 ± 0.19,2.85 ± 0.1,–,–
YTEGISQRMRVPEKLKVAPPNADL [MFF],3.28 ± 0.4,3.75 ± 0.32,–,–
RAKDFLPADIQAQFAISRELIRNI [SNX8],2.38 ± 0.18,2.48 ± 0.24,–,–
YKYGAIRDIDLKNRRGGPPFAFVE [SRSF1],2.38 ± 0.31,2.62 ± 0.36,–,–
PEPGRAGYPAPRDEGVLRPRAHA [HAGHL],–,–,3.29 ± 0.19,3.41 ± 0.28
GDIHLSPEEPAASTDPNIVRKKER [TAF7L],5.38 ± 0.32,5.43 ± 0.27,–,–
LRAGSSEFDSEHNLTSNEGHSLKN [RASAL3],4.67 ± 0.42,4.87 ± 0.64,–,–
AGWTLATLGEQGLPHQSHRQRSSL [SCNN1D],3.62 ± 0.21,3.75 ± 0.21,–,–
LAIFKSGGIPALVKMLGSPVDSVL [CTNNB1],2.28 ± 0.36,2.14 ± 0.35,–,–
PGSASLAQSRLEDPGADSEKSTVV [DLX1],5.49 ± 0.38,5.36 ± 0.26,–,–

Sequence,protein stability index [1],protein stability index [2],protein stability index [3],protein stability index [4]
GERVVINISGLRFETQLKTLCQFP [KCNA3],2.61 ± 0.45,2.19 ± 0.083,–,–
FLVFILNAGLVWFFPWREAKPGST [MFSD9],3.21 ± 0.74,3.11 ± 0.19,–,–
TCLMISCYKGHKEIAQYLLEKGAD [FEM1C],2.29 ± 0.39,2.05 ± 0.27,–,–
EKVSQELKEPLHKALQMLLSQPVT [BCL2L13],2.88 ± 0.26,3 ± 0.45,–,–
ASWAKPHYEFNLSRMKFRGNGALS [LCOR],2.56 ± 0.19,2.71 ± 0.24,–,–
GSPDDSHPKDGPSPGGTLMDLSER [DLC1],5.54 ± 0.32,5.48 ± 0.28,–,–
LFSSHPPLGGGVGGQDGLGAPKDQ [KLHL14],4.89 ± 0.55,4.81 ± 0.049,–,–
ARRRKKILFYCHFPDLLLTKRDSF [ALG2],2.4 ± 0.56,2.04 ± 0.55,–,–
PIDGTTNFVHRFPFVAVSIGFAVN [IMPA1],2.96 ± 0.76,2.39 ± 0.55,–,–
DTDAEGDDFELLDQSELSQLDPAS [RETREG3],5.61 ± 0.065,5.57 ± 0.16,–,–
TYSLVPKKKTKVLKQRTVIEMFKS [EHMT1],2.41 ± 0.21,2.58 ± 0.34,–,–
QKPLCASDGRTFLSRCEFQRAKCK [SMOC2],3.14 ± 0.52,3.6 ± 0.88,–,–
PGQVAGADFESEDEGEEFDDWEDD [EID1],5.52 ± 0.59,5.59 ± 0.2,–,–
DVKCYQGTDIVRGCDPLVKPVGRQ [ADAMTSL2],3.68 ± 0.3,3.88 ± 0.27,–,–
ERSQVRGSAPPRATPGGGTGEAAR [PCDHGC5],5.13 ± 0.31,5.4 ± 0.18,–,–
NGRKIMGKEVKVNWATTPSSQKKD [TIA1],4.43 ± 0.077,4.55 ± 0.22,–,–
KLSEHLRYCDSILREMLSKKHAAY [BRD3],2.28 ± 0.21,2.14 ± 0.21,–,–
EVANKDLTERKYKGDSTIRELKAK [SASS6],3.27 ± 0.39,3.27 ± 0.53,–,–
IKMILKMVQLDSIEDLEVTCTWKL [PRAME],2.89 ± 0.29,2.99 ± 0.42,–,–
ARICRLLKHPNIVRLHDSISEEGH [CAMK2A],2.85 ± 0.17,2.84 ± 0.33,–,–
